Measured values reported in patent US20220031820.

Test system: T1, recombinant syndecan-1
T1 sequence (P18827 whole entry, species assumed, looked up): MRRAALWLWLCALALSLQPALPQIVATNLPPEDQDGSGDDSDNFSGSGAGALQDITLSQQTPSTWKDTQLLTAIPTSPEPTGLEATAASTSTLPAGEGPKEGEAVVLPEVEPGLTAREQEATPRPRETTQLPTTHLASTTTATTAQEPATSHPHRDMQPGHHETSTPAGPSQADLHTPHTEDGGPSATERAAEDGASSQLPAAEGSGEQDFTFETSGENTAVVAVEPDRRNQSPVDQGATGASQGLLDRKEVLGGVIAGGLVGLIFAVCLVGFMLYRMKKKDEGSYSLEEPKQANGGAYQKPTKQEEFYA

recombinant GzmB was tested, and the “in vitro syndecan-1 cleavage assay (coomassie gel); GzmB 500 nM, syndecan-1 0.7 ug” value was “syndecan-1 was cleaved by all three granzymes”.
